Measured values as given in patent US6218508A, “Anti-microbial proteins” (Novartis AG, priority 1993, dated 2001).
Numbering of substitutions follows the chain as printed.

B1: SEQ ID No 1: anti-fungal protein of about 7 kDa from sugar beet leaf intercellular washing fluid, peak 3.1 in FIG. 3 (protein)
chain: ITCGLVASKLAPCIGYLQGAPGPSAGCCGGIKGLNSAAASPADRKTACTCLKSAATSIKGINYGKAASLPRQCGVSVPYAISPNTNCNAIH
B2: SEQ ID No 2: anti-fungal protein of about 7 kDa from sugar beet leaf intercellular washing fluid, peak 3.2 in FIG. 3 (protein)
chain: B1 chain with I58M, V77I

test system: C. beticola; assay: micro-titre plate bioassay of fungal growth inhibition; format: cell-based; details: spores of C. beticola, 96 well micro-titre plates, absorbance at 620 nm; FIGS. 4 and 7: 10 ug protein
Description: The thus obtained IWF is fractionated by cation exchange chromatography on a 10 ml CM-Sepharose column (Pharmacia LKB) pre-equilibrated in starting buffer (20 mM HAc (pH 4.5)). The fractionation is performed at 4° C. at a flow rate of 25 ml/h. Fractions of 3 ml are collected. Proteins not bound to the column are removed by extensive washing of the column with starting buffer. Bound proteins are eluted by applying to the column further starting buffer comprising stepwise increased salt concentrations: viz, 0.1 M NaCl, 0.3 M NACl and 0.5 M NaCl. The absorbance at 280 nm of the eluate is measured, and fractions judged to comprise protein are tested for their anti-fungal activity against C. beticola using the microtiter plate bioassay described previously (PCT Patent Application No. PCT/DK92/00108, Publication No. WO 92/17591, now assigned to Sandoz LTD). […] The inhibition of fungal growth is measured in 96 well micro-titre plates at 620 nm, essentially as described in WO 92/17591. […] The proteins, either alone or in combination with WIN N (which is purified from barley grain or stressed barley leaf as described by Hejgaard et al (FEBS Letters, 307, 389-392 (1992)), and/or a protein having a sequence corresponding to at least one of those given in SEQ ID Nos. 4-6, are incubated with spores of C. beticola. The assay mix (240 ul) contains 100 ul of potato dextrose broth (Difco), 40 ul protein sample (or buffer control) in 100 mM Tris and 20 mM NaCl (pH 8.0) as well as approximately 400 spores in 100 ul water. The micro-titre plates are sealed with tape to avoid evaporation and contamination and subsequently incubated at room temperature on an agitator operated at 200 rpm. The absorbance at 620 nm is measured each day for 8 days and plotted for each concentration of protein vs time.

| Molecule | anti-fungal activity (inhibition of fungal growth) |
| --- | --- |
| SEQ ID No 3: anti-fungal protein of 2.5-3 kDa from sugar beet leaf intercellular washing fluid, peaks 1 and 2 in FIG. 6 (SGECNMYGRCPPGYCCSKFGYCGVGRAYCG) | significant anti-fungal activity |
| B1 | significant anti-fungal activity |
| B2 | significant anti-fungal activity |
